Molecular target: GST fusion protein of the α1-syntrophin PDZ domain (UniProt Q61234)
Assay: pull-down; GST fusion proteins immobilised on beads, incubated 1 to 2 h at 4 °C with lysates of MEFs expressing HA-tagged DGKζ constructs; washed at least four times with ice-cold lysis buffer; bound DGKζ detected by anti-HA immunoblot; in some panels cells were treated with vehicle, 100 nM PMA, or 1 μM Gö6976 before PMA

Sequence of GST fusion protein of the α1-syntrophin PDZ domain (Q61234 81-164): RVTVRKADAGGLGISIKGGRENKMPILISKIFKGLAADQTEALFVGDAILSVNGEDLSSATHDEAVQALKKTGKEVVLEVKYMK
Sequence of HA-tagged DGKζ^M1 (all four serine residues in the MARCKS domain changed to aspartate) (Q13574 whole entry, the tested form may be a part): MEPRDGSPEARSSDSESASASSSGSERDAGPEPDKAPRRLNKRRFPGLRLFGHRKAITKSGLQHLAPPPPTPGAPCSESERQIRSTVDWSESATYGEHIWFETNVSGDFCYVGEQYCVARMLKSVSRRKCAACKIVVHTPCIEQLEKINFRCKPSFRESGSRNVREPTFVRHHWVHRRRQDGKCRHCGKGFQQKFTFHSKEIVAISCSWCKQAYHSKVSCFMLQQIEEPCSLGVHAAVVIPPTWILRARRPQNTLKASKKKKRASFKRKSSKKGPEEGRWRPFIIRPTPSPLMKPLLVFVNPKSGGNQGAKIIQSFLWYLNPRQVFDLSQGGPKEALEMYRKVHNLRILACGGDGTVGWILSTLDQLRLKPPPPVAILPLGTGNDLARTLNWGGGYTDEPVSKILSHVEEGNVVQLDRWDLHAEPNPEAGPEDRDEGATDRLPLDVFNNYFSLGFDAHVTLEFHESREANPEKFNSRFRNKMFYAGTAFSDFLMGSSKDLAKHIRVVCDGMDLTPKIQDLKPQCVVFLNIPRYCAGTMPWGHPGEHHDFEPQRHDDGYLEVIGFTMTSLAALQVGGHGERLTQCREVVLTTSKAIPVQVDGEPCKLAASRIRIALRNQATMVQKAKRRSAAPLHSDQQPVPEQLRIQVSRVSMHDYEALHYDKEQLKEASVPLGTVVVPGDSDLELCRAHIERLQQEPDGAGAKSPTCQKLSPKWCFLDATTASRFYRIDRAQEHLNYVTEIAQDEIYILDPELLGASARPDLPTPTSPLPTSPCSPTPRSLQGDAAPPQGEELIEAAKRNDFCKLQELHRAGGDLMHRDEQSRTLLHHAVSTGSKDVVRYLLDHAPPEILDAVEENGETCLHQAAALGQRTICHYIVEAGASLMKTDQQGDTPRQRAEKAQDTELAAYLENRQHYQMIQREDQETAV

fold binding against DGKζ^WT: 2.5 fold
Substance: HA-tagged DGKζ^M1 (all four serine residues in the MARCKS domain changed to aspartate) (from UniProt Q13574 1-928) (enzyme)
